According to PMC7545097, “Mapping the native interaction surfaces of PREP1 with PBX1 by cross-linking mass-spectrometry and mutagenesis” (Scientific Reports, 2020):

T1: full-length MEIS1 (MEIS1_(1-390)) in the purified MEIS1-PBX1 complex (UniProt O00470 1-390)
T1 construct: MEIS1, full length, residues 1-390; source: E. coli, purified as a complex with PBX1(1-308)
T1 sequence (looked up): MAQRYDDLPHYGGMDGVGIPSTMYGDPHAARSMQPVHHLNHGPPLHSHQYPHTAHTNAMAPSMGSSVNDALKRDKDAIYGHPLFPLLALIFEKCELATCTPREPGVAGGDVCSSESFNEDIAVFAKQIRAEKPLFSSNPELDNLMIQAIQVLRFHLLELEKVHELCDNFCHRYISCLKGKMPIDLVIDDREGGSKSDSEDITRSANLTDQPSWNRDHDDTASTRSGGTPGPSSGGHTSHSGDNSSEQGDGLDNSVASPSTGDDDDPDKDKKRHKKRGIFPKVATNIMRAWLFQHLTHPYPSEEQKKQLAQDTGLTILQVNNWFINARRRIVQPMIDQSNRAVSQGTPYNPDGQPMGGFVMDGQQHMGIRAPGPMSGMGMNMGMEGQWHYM

T2: PREP1_(1-344) (UniProt P55347 1-344)
T2 construct: PREP1 (PKNOX1), residues 1-344, lacking the C-terminal region; Second cassette of the di-cistronic vector pGEX-6P-2RBS; also called PKNOX1; C-terminal truncated PREP1; source: E. coli, co-expressed with PBX1(1-308), purified as a complex (cation exchange, SEC on Superose 6)
T2 sequence (looked up): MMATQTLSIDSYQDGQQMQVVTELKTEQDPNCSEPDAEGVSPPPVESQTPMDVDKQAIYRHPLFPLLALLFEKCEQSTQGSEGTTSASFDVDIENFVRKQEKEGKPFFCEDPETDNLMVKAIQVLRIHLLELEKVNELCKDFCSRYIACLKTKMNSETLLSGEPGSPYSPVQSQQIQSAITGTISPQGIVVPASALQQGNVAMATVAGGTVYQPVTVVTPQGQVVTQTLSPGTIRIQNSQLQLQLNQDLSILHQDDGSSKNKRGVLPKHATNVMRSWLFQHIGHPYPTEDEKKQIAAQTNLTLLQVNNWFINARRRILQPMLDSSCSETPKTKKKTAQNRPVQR

T3: PBX1_(1-430), wild-type recombinant (human, UniProt P40424 1-430)
T3 construct: also called wild-type PBX1; purified recombinant human PBX1; source: E. coli, purified
T3 sequence (looked up): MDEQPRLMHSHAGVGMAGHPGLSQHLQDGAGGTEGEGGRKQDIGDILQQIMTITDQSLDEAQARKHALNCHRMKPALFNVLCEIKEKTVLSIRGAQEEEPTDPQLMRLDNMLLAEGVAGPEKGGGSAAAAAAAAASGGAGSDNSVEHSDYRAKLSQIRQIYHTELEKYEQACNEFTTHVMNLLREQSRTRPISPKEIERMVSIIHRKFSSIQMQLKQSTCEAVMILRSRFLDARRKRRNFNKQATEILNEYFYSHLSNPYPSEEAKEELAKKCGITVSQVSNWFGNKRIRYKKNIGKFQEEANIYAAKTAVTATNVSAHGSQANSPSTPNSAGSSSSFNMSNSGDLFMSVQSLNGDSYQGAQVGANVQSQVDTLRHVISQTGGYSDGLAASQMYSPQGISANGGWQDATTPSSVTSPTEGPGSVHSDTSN


Legend:
Conditions in all cases: both partners purified
[1] = biological target: T1, full-length MEIS1 (MEIS1_(1-390)) in …; assay: cross-linking; purified complex at 1 mg/ml in 50 mM borate-buffered saline, 1 mM BS^3, 1 h at room temperature; SDS-PAGE, in-gel Glu-C and trypsin digestion, nLC-ESI-MS/MS, pLink 2; two biological replicates
PREP1_(1-344) = biological target: T2, PREP1_(1-344); assay: as above
[2] = biological target: T3, PBX1_(1-430), wild-type recombinant; assay: ELISA; PBX1 wild-type coated at 0.1 µM in 100 mM Tris–HCl pH 7.5; GST-fused proteins at 0.23 nM to 0.5 µM, 1 h at 37 °C; anti-GST detection; GST signal subtracted; one-site binding model

Row | Binder | binding result [1] | binding result (PREP1_(1-344)) | Kd [2]
1 | PBX1_(1-308) (domain or fragment, human, UniProt P40424 1-308, looked up, PBX1, residues 1-308, lacking the C-terminal region; First cassette of the di-cistronic vector pGEX-6P-2RBS, with PREP1 in the second; also called C-terminal truncated PBX1; source: E. coli, purified as a complex with PREP1(1-344) or with MEIS1 (ion exchange, SEC on Superose 6)) MDEQPRLMHSHAGVGMAGHPGLSQHLQDGAGGTEGEGGRKQDIGDILQQIMTITDQSLDEAQARKHALNCHRMKPALFNVLCEIKEKTVLSIRGAQEEEPTDPQLMRLDNMLLAEGVAGPEKGGGSAAAAAAAAASGGAGSDNSVEHSDYRAKLSQIRQIYHTELEKYEQACNEFTTHVMNLLREQSRTRPISPKEIERMVSIIHRKFSSIQMQLKQSTCEAVMILRSRFLDARRKRRNFNKQATEILNEYFYSHLSNPYPSEEAKEELAKKCGITVSQVSNWFGNKRIRYKKNIGKFQEEANIYAAK | binds | binds | –
2 | GST-fused wild-type MEIS1 (natural protein, UniProt O00470 1-390, looked up, MEIS1, full length, residues 1-390; Detected through GST in the ELISA; source: E. coli, purified) MAQRYDDLPHYGGMDGVGIPSTMYGDPHAARSMQPVHHLNHGPPLHSHQYPHTAHTNAMAPSMGSSVNDALKRDKDAIYGHPLFPLLALIFEKCELATCTPREPGVAGGDVCSSESFNEDIAVFAKQIRAEKPLFSSNPELDNLMIQAIQVLRFHLLELEKVHELCDNFCHRYISCLKGKMPIDLVIDDREGGSKSDSEDITRSANLTDQPSWNRDHDDTASTRSGGTPGPSSGGHTSHSGDNSSEQGDGLDNSVASPSTGDDDDPDKDKKRHKKRGIFPKVATNIMRAWLFQHLTHPYPSEEQKKQLAQDTGLTILQVNNWFINARRRIVQPMIDQSNRAVSQGTPYNPDGQPMGGFVMDGQQHMGIRAPGPMSGMGMNMGMEGQWHYM | – | – | 80 ± 17 nM
